Laboratory results from article PMC13376610, “Nanobody-mediated control of long RSH Rel and RelA catalysis by restriction of their conformational landscape” (Nature Communications, 2026).
Read-outs that look alike come from different tables or passages of the source. Blank lines part the entries; values can stand above or below the molecule they belong to.

Columns and labels:
RelCt^NTD = molecular target: T1, RelCt^NTD (Chlorobaculum tepidum, UniProt Q8KC80); test: ITC; assay type: binding; conditions: 15 °C, pH 7.5, 10 mM MgCl2, no nanobody; SYNTH active site; non-hydrolysable ATP analogue; also crystal structure with GDP (2.65 Å)
T1 construct: gene relA; N-terminal catalytic region (HD + SYNTH domains), C-terminal regulatory domains removed; N-terminal His-TEV tag cleaved; recombinant, gene from GenScript
T1 sequence (Q8KC80 1-390 limits assumed): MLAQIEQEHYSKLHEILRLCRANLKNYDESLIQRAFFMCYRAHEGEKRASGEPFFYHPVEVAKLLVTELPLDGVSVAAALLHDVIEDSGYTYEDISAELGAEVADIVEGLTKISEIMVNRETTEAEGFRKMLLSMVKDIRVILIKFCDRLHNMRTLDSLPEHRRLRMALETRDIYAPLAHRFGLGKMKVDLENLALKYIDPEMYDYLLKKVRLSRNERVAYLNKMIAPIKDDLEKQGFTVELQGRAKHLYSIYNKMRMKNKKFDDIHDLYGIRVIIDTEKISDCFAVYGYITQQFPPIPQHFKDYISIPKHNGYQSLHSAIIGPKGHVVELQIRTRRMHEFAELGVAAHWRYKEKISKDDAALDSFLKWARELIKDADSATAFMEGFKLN

full-length E. coli RelA = molecular target: T2, full-length E. coli RelA (Escherichia coli (K-12 entry), UniProt P0AG20); test: ITC; nanobody titrated into the RSH enzyme in the cell; Affinity-ITC, 15 °C, 2 μL injections, stirring 75 r.p.m., triplicate; mean KD ± SD; conditions: both partners purified
T2 construct: RelA, long RSH (p)ppGpp synthetase, Escherichia coli, full length; also called RelAEc; source: construct generated by GenScript

[1] = molecular target: T3, full-length Rel from Chlorobaculum tepidum (Chlorobaculum tepidum TLS, UniProt Q8KC80); test: cell-based or functional assay
[2] = molecular target: T4, RelCt^NTD, N-terminal catalytic region of C. tepidum Rel (Chlorobaculum tepidum); test: ITC
T4 chain: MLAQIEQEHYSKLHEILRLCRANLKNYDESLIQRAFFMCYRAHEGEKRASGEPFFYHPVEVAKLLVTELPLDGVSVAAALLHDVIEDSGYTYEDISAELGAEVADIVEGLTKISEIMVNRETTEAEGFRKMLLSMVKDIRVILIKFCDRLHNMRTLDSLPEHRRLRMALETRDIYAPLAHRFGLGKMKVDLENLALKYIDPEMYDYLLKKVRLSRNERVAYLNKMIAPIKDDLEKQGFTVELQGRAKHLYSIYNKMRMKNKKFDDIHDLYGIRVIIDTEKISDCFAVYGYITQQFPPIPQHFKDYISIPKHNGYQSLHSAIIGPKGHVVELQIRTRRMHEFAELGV

[3] = molecular target: T3, full-length Rel from Chlorobaculum …; test: ITC; nanobody titrated into the RSH enzyme in the cell; Affinity-ITC, 15 °C, 2 μL injections, stirring 75 r.p.m., triplicate; mean KD ± SD; conditions: both partners purified
RelCt^D283A [4] = molecular target: T5, RelCt^D283A (Chlorobaculum tepidum); test: ITC
T5 chain: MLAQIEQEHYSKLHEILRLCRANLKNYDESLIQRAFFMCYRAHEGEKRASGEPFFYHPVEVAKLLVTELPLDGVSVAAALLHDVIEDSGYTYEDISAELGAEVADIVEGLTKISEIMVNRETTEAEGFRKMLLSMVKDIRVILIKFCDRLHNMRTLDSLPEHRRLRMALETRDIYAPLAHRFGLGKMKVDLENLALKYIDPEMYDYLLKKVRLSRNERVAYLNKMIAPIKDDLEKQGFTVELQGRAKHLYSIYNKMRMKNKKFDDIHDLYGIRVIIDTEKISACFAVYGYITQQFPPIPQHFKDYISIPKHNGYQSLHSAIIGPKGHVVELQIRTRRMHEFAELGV

RelCt^Y290A = molecular target: T6, RelCt^Y290A (Chlorobaculum tepidum); test: ITC
T6 chain: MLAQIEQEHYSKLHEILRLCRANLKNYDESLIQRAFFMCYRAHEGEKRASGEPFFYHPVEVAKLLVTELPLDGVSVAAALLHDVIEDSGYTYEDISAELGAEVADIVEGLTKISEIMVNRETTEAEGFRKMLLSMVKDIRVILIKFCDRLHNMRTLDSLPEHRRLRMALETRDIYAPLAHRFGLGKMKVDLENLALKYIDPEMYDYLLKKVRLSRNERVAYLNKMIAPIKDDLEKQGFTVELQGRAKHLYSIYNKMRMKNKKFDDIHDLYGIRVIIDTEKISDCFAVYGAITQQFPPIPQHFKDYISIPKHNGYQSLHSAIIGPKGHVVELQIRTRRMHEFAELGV

RelCt^K280A = molecular target: T7, RelCt^K280A (Chlorobaculum tepidum); test: ITC
T7 chain: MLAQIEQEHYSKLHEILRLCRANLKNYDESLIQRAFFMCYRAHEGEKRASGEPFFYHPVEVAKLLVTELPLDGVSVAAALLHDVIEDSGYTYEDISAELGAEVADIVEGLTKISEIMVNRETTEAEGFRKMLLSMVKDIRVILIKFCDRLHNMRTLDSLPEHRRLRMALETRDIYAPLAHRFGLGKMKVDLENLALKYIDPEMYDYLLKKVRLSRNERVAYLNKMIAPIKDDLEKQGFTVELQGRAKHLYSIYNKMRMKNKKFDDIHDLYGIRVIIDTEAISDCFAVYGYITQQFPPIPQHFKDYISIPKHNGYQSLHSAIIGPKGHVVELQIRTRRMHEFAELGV

RelCt^D283A [5] = molecular target: T5, RelCt^D283A; test: ITC
RelCt^A286K = molecular target: T8, RelCt^A286K (Chlorobaculum tepidum); test: ITC
T8 chain: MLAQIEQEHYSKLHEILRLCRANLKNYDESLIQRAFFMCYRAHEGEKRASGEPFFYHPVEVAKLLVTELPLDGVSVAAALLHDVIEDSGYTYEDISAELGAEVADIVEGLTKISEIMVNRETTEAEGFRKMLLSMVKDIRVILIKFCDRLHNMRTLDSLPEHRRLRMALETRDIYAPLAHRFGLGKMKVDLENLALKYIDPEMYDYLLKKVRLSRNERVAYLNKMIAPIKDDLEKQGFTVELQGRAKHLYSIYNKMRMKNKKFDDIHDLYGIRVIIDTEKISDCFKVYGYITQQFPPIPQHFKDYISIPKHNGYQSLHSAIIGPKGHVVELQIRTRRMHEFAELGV

[6] = molecular target: RelCt^R215E (Chlorobaculum tepidum); test: ITC; nanobody titrated into the RSH enzyme in the cell; Affinity-ITC, 15 °C, 2 μL injections, stirring 75 r.p.m., triplicate; mean KD ± SD
[7] = molecular target: T9, RelCt^NTD, N-terminal catalytic region of C. tepidum Rel (Chlorobaculum tepidum TLS); test: HDX-MS; RelCt^NTD alone against its complex with the nanobody, 50 to 70 μM; labelling 0.5, 5 or 60 min at 20 °C in 50 mM HEPES, 500 mM KCl, 500 mM NaCl, 2 mM MgCl2, 1 mM TCEP, 0.002% mellitic acid (pD 7.5); triplicate; conditions: both partners purified
T9 construct: Rel, Chlorobaculum tepidum, N-terminal catalytic region (HD and SYNTH domains); His-TEV tag removed with TEV protease; source: recombinant, purified (HisTrap, SEC, TEV cleavage, reverse IMAC, SEC); construct generated by GenScript; not shown: His tag, N-terminal, cleaved
T9 chain: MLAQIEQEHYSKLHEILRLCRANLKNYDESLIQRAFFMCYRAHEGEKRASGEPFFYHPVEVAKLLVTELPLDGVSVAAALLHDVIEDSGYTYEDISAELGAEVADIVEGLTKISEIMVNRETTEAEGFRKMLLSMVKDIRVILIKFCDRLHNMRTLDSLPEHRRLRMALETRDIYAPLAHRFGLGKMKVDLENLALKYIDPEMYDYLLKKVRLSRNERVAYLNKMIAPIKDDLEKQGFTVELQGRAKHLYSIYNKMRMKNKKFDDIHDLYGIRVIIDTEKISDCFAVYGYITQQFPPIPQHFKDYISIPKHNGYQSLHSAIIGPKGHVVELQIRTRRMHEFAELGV

T2 sequence (P0AG20 whole entry): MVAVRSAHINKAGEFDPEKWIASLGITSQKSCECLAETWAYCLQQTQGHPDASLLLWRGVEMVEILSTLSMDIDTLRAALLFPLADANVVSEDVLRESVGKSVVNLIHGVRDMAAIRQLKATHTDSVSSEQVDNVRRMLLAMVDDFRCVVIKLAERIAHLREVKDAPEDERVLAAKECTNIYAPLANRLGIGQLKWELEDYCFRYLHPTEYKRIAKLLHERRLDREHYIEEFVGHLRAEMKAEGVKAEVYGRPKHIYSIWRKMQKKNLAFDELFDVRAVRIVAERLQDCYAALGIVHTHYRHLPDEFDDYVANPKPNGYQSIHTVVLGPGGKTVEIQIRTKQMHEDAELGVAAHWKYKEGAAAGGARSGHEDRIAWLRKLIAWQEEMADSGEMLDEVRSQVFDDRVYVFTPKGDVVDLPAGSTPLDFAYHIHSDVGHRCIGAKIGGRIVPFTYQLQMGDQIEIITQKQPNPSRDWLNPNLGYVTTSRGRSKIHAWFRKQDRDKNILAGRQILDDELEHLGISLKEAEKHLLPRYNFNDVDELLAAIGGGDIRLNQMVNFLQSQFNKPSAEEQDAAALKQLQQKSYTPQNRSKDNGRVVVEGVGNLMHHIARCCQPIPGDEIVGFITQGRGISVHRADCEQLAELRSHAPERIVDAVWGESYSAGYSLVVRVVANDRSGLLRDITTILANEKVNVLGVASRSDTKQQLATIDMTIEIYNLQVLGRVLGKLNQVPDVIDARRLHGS

Molecule: Nc1ncnc2c1ncn2[C@@H]1O[C@H](COP(=O)(O)CP(=O)(O)OP(=O)(O)O)[C@@H](O)[C@H]1O [APCPP]
Kd (RelCt^NTD): 37900 nM

binding result (full-length E. coli RelA): no binding
B1: Nb120 (VHH)
VHH: QVQLVESGGGLVQPGGSLRLSCAASGTIRSLNAMAWYRQAPGKERELAARISSGGTTTYADSVKGRFTISRDNAKNTLYLQMNSLKPEDTAVYYCKANRFSTYGYRDDIWGQGTQVTVS
notes: control nanobody selected against a different target; also called control Nb120; source: E. coli WK6, periplasmic extraction, purified (Ni-NTA IMAC, SEC)

SYNTH activity (turnover of ppGpp synthesis) of RelCt in the presence of Nb898, HPLC [1]: ~11 fold
Kd [2]: 190 nM
Kd [3]: 186 nM
B2: Nb898 (VHH)
VHH: QVQLQESGGGLVQAGGSLRLSCAASGSIESINAMAWYRQAPGKPRELVAVIAKSDGSTTYAVPVKGRFTISRDDAKNTVYLQMNSLKPEDTAIYYCNKIPNFTYWGQGTQVTVSS
notes: llama nanobody selected against C. tepidum Rel; Expressed from the pMESy4 plasmid; source: E. coli WK6, periplasmic extraction, purified (Ni-NTA IMAC, SEC)

Kd (RelCt^D283A [4]): 200 nM
Kd (RelCt^Y290A): 1100 nM
Kd (RelCt^K280A): 2200 nM
Kd (RelCt^D283A [5]): 201 nM
Kd (RelCt^A286K): 12000 nM
B3: Nb898 (VHH)
VHH: QVQLQESGGGLVQAGGSLRLSCAASGSIESINAMAWYRQAPGKPRELVAVIAKSDGSTTYAVPVKGRFTISRDDAKNTVYLQMNSLKPEDTAIYYCNKIPNFTYWGQGTQVTVSS
modifications: form not printed for this variant; NTD taken because the methods purify 'RelCtNTD and variants' (full length possible); limits from 9S6K entity

Kd (full-length E. coli RelA): 13 nM
B4: Nb94 (VHH)
VHH: QVQLVESGGGMVQPGGSLRLSCAASGFTFSTYSMGWFRQAPGQEREFVAAISWSGDSAYYADSVKGRFTISRDNAKNTVYLQMNSLKFEDTAVYYCNADLDGLGYDYWGQGTQVTVS
notes: llama nanobody selected against E. coli RelA; Expressed from the pMESy4 plasmid; also called nanobody 94; source: E. coli WK6, periplasmic extraction, purified (Ni-NTA IMAC, SEC)

Kd (full-length E. coli RelA): 80 nM
B5: Nb96 (VHH)
VHH: QVQLQESGGGLVQAGGSLRLSCAASGSIFDIKVMAWYRQAPGKSRELVAVHASADDSTTYEKSVKGRFTISRDNAKNTVYLQMNSLKPEDTAIYYCNRIPNFTHWGQGTQVTVS
notes: llama nanobody selected against E. coli RelA; Expressed from the pMESy4 plasmid; also called nanobody 96; source: E. coli WK6, periplasmic extraction, purified (Ni-NTA IMAC, SEC)

fold drop in affinity against unsubstituted RelCt [6]: 28 fold
HD (ppGpp hydrolase) activity of RelCt in the presence of Nb585, HPLC [1]: 2 fold
binding result [7]: binds
Kd [3]: 21 nM
B6: Nb585 (VHH)
VHH: QVQLQESGGGLVQAGGSLRLSCAASGFTFEDYTIGWFRQAPGKEREGVSLISNSDGFTSYADSVKGQFTISSENAKNTVYLQMDNLKPEDTAVYYCAATEVLAHLMWRPSNWGYWGQGTQVTV
notes: llama nanobody selected against C. tepidum Rel; Expressed from the pMESy4 plasmid; also called nanobody 585; source: E. coli WK6, periplasmic extraction, purified (Ni-NTA IMAC, SEC)
